Measured values: paper PMC8382915

Key:
[1] = target: Rickettsiales bacterium TMED131 CuZn superoxide dismutase (RbCuZnSOD) (Rickettsiales bacterium TMED131); experiment: SEC-MALS; size-exclusion chromatography coupled static light scattering (SEC-SLS), masses from refractive index; 20 mM Tris-HCl pH 7.4, 150 mM NaCl
[2] = target: Bacteroidetes bacterium GWA2_30_7 CuZn superoxide dismutase (BbCuZnSOD) (Bacteroidetes bacterium GWA2_30_7); experiment: as above

| stoichiometry N [2] | Substance | stoichiometry N [1] |
| --- | --- | --- |
|  | Rickettsiales bacterium TMED131 CuZn superoxide dismutase (RbCuZnSOD) (enzyme) | 2 |
| 2 | Bacteroidetes bacterium GWA2_30_7 CuZn superoxide dismutase (BbCuZnSOD) (enzyme) |  |
